This data set deals with the molecule itself. The data set is described as follows: negative-stain TEM; 0.02 mg/ml purified protein on glow-discharged carbon-coated copper grids, 2% uranyl acetate; single-point mutants taken directly after TEV cleavage of the 8×His tag.

B1: hNINJ1∆1–36 (domain or fragment, human, UniProt Q92982 37-152, looked up)
chain: NVNHYASKKSAAESMLDIALLMANASQLKAVVEQGPSFAFYVPLVVLISISLVLQIGVGVLLIFLVKYDLNNPAKHAKLDFLNNLATGLVFIIVVVNIFITAFGVQKPLMDMAPQQ
notes: ninjurin-1 (NINJ1), human, UniProt Q92982, printed as hNINJ1∆1–36 (residues 1–36 removed); probably as the wild type (8×His and TEV site, cleaved); also called truncated hNINJ1; source: E. coli Rosetta2 (DE3), purified
Regarding B1, the binding result is on record as “binds”.

B2: hNINJ1 Q91A (natural protein, human, UniProt Q92982 1-152, looked up)
chain: MDSGTEEYELNGGLPPGTPGSPDASPARWGWRHGPINVNHYASKKSAAESMLDIALLMANASQLKAVVEQGPSFAFYVPLVVLISISLVLAIGVGVLLIFLVKYDLNNPAKHAKLDFLNNLATGLVFIIVVVNIFITAFGVQKPLMDMAPQQ
notes: ninjurin-1 (NINJ1), human, UniProt Q92982, residues 1–152, point mutant; source: E. coli Rosetta2 (DE3), purified (DDM, Ni-NTA, TEV cleavage); not shown: 8×His, N-terminal, cleaved
Regarding B2, the binding result is on record as “binds”.

B3: hNINJ1 G95L (natural protein, human, UniProt Q92982 1-152, looked up)
chain: MDSGTEEYELNGGLPPGTPGSPDASPARWGWRHGPINVNHYASKKSAAESMLDIALLMANASQLKAVVEQGPSFAFYVPLVVLISISLVLQIGVLVLLIFLVKYDLNNPAKHAKLDFLNNLATGLVFIIVVVNIFITAFGVQKPLMDMAPQQ
notes: as for B2
As to B3, the binding result is “binds”.

B4: hNINJ1 D53A (natural protein, human, UniProt Q92982 1-152, looked up)
chain: MDSGTEEYELNGGLPPGTPGSPDASPARWGWRHGPINVNHYASKKSAAESMLAIALLMANASQLKAVVEQGPSFAFYVPLVVLISISLVLQIGVGVLLIFLVKYDLNNPAKHAKLDFLNNLATGLVFIIVVVNIFITAFGVQKPLMDMAPQQ
notes: as for B2
In the case of B4, the binding result is on record as “binds”.

B5: hNINJ1 L121W (natural protein, human, UniProt Q92982 1-152, looked up)
chain: MDSGTEEYELNGGLPPGTPGSPDASPARWGWRHGPINVNHYASKKSAAESMLDIALLMANASQLKAVVEQGPSFAFYVPLVVLISISLVLQIGVGVLLIFLVKYDLNNPAKHAKLDFLNNWATGLVFIIVVVNIFITAFGVQKPLMDMAPQQ
notes: as for B2
On to B5, for which the binding result was “binds”.

B6: full-length, wild-type human NINJ1 (ninjurin-1), residues 1–152 (natural protein, UniProt Q92982 1-152, looked up)
chain: MDSGTEEYELNGGLPPGTPGSPDASPARWGWRHGPINVNHYASKKSAAESMLDIALLMANASQLKAVVEQGPSFAFYVPLVVLISISLVLQIGVGVLLIFLVKYDLNNPAKHAKLDFLNNLATGLVFIIVVVNIFITAFGVQKPLMDMAPQQ
notes: ninjurin-1 (NINJ1), human, UniProt Q92982, residues 1–152; residues 39–141 are modelled in the filament structure; residues of the site probably remain at the N-terminus after cleavage; Forms filaments of no fixed number of subunits; also called hNINJ1; hNINJ1(1–152); source: E. coli Rosetta2 (DE3), extracted from membranes with DDM, purified (Ni-NTA, TEV cleavage, SEC on Superose 6); not shown: …
As for B6, the binding result is “binds”.

B7: hNINJ1 A47L (natural protein, human, UniProt Q92982 1-152, looked up)
chain: MDSGTEEYELNGGLPPGTPGSPDASPARWGWRHGPINVNHYASKKSLAESMLDIALLMANASQLKAVVEQGPSFAFYVPLVVLISISLVLQIGVGVLLIFLVKYDLNNPAKHAKLDFLNNLATGLVFIIVVVNIFITAFGVQKPLMDMAPQQ
notes: as for B2
For the protein B7, the binding result is listed as “binds”.

B8: hNINJ1 K45Q (natural protein, human, UniProt Q92982 1-152, looked up)
chain: MDSGTEEYELNGGLPPGTPGSPDASPARWGWRHGPINVNHYASKQSAAESMLDIALLMANASQLKAVVEQGPSFAFYVPLVVLISISLVLQIGVGVLLIFLVKYDLNNPAKHAKLDFLNNLATGLVFIIVVVNIFITAFGVQKPLMDMAPQQ
notes: as for B2
As to B8, the binding result is listed as “binds”.

B9: hNINJ1 L121F (natural protein, human, UniProt Q92982 1-152, looked up)
chain: MDSGTEEYELNGGLPPGTPGSPDASPARWGWRHGPINVNHYASKKSAAESMLDIALLMANASQLKAVVEQGPSFAFYVPLVVLISISLVLQIGVGVLLIFLVKYDLNNPAKHAKLDFLNNFATGLVFIIVVVNIFITAFGVQKPLMDMAPQQ
notes: as for B2
With B9, the binding result is listed as “binds”.

B10: hNINJ1 A138L (natural protein, human, UniProt Q92982 1-152, looked up)
chain: MDSGTEEYELNGGLPPGTPGSPDASPARWGWRHGPINVNHYASKKSAAESMLDIALLMANASQLKAVVEQGPSFAFYVPLVVLISISLVLQIGVGVLLIFLVKYDLNNPAKHAKLDFLNNLATGLVFIIVVVNIFITLFGVQKPLMDMAPQQ
notes: as for B2
As to B10, the binding result is listed as “binds”.

B11: hNINJ1 I134F (natural protein, human, UniProt Q92982 1-152, looked up)
chain: MDSGTEEYELNGGLPPGTPGSPDASPARWGWRHGPINVNHYASKKSAAESMLDIALLMANASQLKAVVEQGPSFAFYVPLVVLISISLVLQIGVGVLLIFLVKYDLNNPAKHAKLDFLNNLATGLVFIIVVVNFFITAFGVQKPLMDMAPQQ
notes: as for B2
With B11, the binding result is listed as “binds”.

B12: hNINJ1 T123L (natural protein, human, UniProt Q92982 1-152, looked up)
chain: MDSGTEEYELNGGLPPGTPGSPDASPARWGWRHGPINVNHYASKKSAAESMLDIALLMANASQLKAVVEQGPSFAFYVPLVVLISISLVLQIGVGVLLIFLVKYDLNNPAKHAKLDFLNNLALGLVFIIVVVNIFITAFGVQKPLMDMAPQQ
notes: as for B2
With B12, the binding result was “binds”.

B13: hNINJ1 I84F (natural protein, human, UniProt Q92982 1-152, looked up)
chain: MDSGTEEYELNGGLPPGTPGSPDASPARWGWRHGPINVNHYASKKSAAESMLDIALLMANASQLKAVVEQGPSFAFYVPLVVLFSISLVLQIGVGVLLIFLVKYDLNNPAKHAKLDFLNNLATGLVFIIVVVNIFITAFGVQKPLMDMAPQQ
notes: as for B2
Turning to B13, the binding result is “binds”.

B14: hNINJ1 V82F (natural protein, human, UniProt Q92982 1-152, looked up)
chain: MDSGTEEYELNGGLPPGTPGSPDASPARWGWRHGPINVNHYASKKSAAESMLDIALLMANASQLKAVVEQGPSFAFYVPLVFLISISLVLQIGVGVLLIFLVKYDLNNPAKHAKLDFLNNLATGLVFIIVVVNIFITAFGVQKPLMDMAPQQ
notes: as for B2
Consider B14, for which the binding result was “binds”.

B15: hNINJ1 V82W (natural protein, human, UniProt Q92982 1-152, looked up)
chain: MDSGTEEYELNGGLPPGTPGSPDASPARWGWRHGPINVNHYASKKSAAESMLDIALLMANASQLKAVVEQGPSFAFYVPLVWLISISLVLQIGVGVLLIFLVKYDLNNPAKHAKLDFLNNLATGLVFIIVVVNIFITAFGVQKPLMDMAPQQ
notes: as for B2
Take B15: the binding result is recorded as “binds”.
